# Where a chain is given by its changes, count along the chain named.
# T1: BARD1-V5 WT (BRCA1-Associated RING Domain protein 1) (UniProt Q99728 1-777)
# T1 construct: BARD1 (BRCA1-Associated RING Domain protein 1), wild type; also called pcDNA6.2-BARD1-V5; source: HEK293FT, transiently co-transfected, in lysate
# T1 sequence (looked up): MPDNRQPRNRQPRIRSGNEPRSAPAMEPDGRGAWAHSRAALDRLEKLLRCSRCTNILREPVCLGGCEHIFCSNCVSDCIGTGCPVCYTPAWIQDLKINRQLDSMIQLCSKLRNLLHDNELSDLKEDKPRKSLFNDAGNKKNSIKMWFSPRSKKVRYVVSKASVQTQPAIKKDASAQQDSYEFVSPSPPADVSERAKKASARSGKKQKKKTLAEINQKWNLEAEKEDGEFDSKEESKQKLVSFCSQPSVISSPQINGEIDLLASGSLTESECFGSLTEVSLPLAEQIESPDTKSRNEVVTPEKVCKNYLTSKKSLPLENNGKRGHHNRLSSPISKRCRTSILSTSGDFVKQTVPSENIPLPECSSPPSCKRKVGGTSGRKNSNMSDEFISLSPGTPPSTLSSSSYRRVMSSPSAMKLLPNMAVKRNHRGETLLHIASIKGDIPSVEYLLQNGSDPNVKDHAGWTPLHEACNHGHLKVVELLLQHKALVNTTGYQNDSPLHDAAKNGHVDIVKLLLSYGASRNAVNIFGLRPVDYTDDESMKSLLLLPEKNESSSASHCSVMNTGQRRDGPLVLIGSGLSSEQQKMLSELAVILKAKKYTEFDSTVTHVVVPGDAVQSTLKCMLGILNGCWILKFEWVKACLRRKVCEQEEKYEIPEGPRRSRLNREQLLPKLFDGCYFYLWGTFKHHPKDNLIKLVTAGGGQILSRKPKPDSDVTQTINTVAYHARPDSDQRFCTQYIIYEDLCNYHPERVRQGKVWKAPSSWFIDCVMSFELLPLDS
# T2: Flag-PALB2 WT (Partner and Localiser of BRCA2) (UniProt Q86YC2 1-1186)
# T2 construct: PALB2 (Partner and Localiser of BRCA2), wild type; printed both as Flag-PALB2 and as PALB2-Flag; also called PALB2-Flag; pDEST-FRT/T0-Flag-PALB2; source: HEK293FT, transiently co-transfected, in lysate
# T2 sequence (looked up): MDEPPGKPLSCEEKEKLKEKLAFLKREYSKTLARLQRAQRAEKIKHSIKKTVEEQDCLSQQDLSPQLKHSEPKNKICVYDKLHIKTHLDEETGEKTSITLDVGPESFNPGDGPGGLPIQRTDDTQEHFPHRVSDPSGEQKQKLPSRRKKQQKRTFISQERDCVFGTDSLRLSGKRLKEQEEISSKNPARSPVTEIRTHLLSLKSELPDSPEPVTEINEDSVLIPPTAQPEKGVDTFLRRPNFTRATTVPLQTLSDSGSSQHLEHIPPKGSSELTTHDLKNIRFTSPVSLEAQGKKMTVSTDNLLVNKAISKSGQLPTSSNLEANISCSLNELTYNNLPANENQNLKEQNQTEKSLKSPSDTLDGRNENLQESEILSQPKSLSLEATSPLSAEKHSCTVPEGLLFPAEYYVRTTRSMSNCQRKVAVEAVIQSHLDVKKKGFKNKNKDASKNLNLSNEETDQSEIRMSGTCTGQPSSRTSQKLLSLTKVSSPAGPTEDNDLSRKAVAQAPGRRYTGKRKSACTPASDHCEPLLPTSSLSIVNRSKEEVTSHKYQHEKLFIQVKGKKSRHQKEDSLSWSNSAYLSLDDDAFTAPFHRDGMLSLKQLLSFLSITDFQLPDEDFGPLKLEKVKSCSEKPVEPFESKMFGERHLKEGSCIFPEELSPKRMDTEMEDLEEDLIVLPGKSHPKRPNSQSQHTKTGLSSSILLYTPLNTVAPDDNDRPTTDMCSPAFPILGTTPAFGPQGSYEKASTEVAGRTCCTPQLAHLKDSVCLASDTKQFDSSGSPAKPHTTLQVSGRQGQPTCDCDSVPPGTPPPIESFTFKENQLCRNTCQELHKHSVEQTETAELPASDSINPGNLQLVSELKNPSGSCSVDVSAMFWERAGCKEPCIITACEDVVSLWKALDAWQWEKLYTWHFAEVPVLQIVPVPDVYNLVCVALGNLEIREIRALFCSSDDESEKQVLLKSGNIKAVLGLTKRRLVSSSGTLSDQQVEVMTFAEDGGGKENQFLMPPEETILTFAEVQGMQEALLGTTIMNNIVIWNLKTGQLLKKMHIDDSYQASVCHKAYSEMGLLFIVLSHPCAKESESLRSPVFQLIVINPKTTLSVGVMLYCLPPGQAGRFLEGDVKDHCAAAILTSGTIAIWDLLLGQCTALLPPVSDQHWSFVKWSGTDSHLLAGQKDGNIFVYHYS
# B1: BRCA1 p.Arg504Cys (full-length, mCherry-tagged) (natural protein, human, UniProt P38398 1-1863, looked up)
# chain: MDLSALRVEEVQNVINAMQKILECPICLELIKEPVSTKCDHIFCKFCMLKLLNQKKGPSQCPLCKNDITKRSLQESTRFSQLVEELLKIICAFQLDTGLEYANSYNFAKKENNSPEHLKDEVSIIQSMGYRNRAKRLLQSEPENPSLQETSLSVQLSNLGTVRTLRTKQRIQPQKTSVYIELGSDSSEDTVNKATYCSVGDQELLQITPQGTRDEISLDSAKKAACEFSETDVTNTEHHQPSNNDLNTTEKRAAERHPEKYQGSSVSNLHVEPCGTNTHASSLQHENSSLLLTKDRMNVEKAEFCNKSKQPGLARSQHNRWAGSKETCNDRRTPSTEKKVDLNADPLCERKEWNKQKLPCSENPRDTEDVPWITLNSSIQKVNEWFSRSDELLGSDDSHDGESESNAKVADVLDVLNEVDEYSGSSEKIDLLASDPHEALICKSERVHSKSVESNIEDKIFGKTYRKKASLPNLSHVTENLIIGAFVTEPQIIQERPLTNKLKCKRRPTSGLHPEDFIKKADLAVQKTPEMINQGTNQTEQNGQVMNITNSGHENKTKGDSIQNEKNPNPIESLEKESAFKTKAEPISSSISNMELELNIHNSKAPKKNRLRRKSSTRHIHALELVVSRNLSPPNCTELQIDSCSSSEEIKKKKYNQMPVRHSRNLQLMEGKEPATGAKKSNKPNEQTSKRHDSDTFPELKLTNAPGSFTKCSNTSELKEFVNPSLPREEKEEKLETVKVSNNAEDPKDLMLSGERVLQTERSVESSSISLVPGTDYGTQESISLLEVSTLGKAKTEPNKCVSQCAAFENPKGLIHGCSKDNRNDTEGFKYPLGHEVNHSRETSIEMEESELDAQYLQNTFKVSKRQSFAPFSNPGNAEEECATFSAHSGSLKKQSPKVTFECEQKEENQGKNESNIKPVQTVNITAGFPVVGQKDKPVDNAKCSIKGGSRFCLSSQFRGNETGLITPNKHGLLQNPYRIPPLFPIKSFVKTKCKKNLLEENFEEHSMSPEREMGNENIPSTVSTISRNNIRENVFKEASSSNINEVGSSTNEVGSSINEIGSSDENIQAELGRNRGPKLNAMLRLGVLQPEVYKQSLPGSNCKHPEIKKQEYEEVVQTVNTDFSPYLISDNLEQPMGSSHASQVCSETPDDLLDDGEIKEDTSFAENDIKESSAVFSKSVQKGELSRSPSPFTHTHLAQGYRRGAKKLESSEENLSSEDEELPCFQHLLFGKVNNIPSQSTRHSTVATECLSKNTEENLLSLKNSLNDCSNQVILAKASQEHHLSEETKCSASLFSSQCSELEDLTANTNTQDPFLIGSSKQMRHQSESQGVGLSDKELVSDDEERGTGLEENNQEEQSMDSNLGEAASGCESETSVSEDCSGLSSQSDILTTQQRDTMQHNLIKLQQEMAELEAVLEQHGSQPSNSYPSIISDSSALEDLRNPEQSTSEKAVLTSQKSSEYPISQNPEGLSADKFEVSADSSTSKNKEPGVERSSPSKCPSLDDRWYMHSCSGSLQNRNYPSQEELIKVVDVEEQQLEESGPHDLTETSYLPRQDLEGTPYLESGISLFSDDPESDPSEDRAPESARVGNIPSSTSALKVPQLKVAESAQSPAAAHTTDTAGYNAMEESVSREKPELTASTERVNKRMSMVVSGLTPEEFMLVYKFARKHHITLTNLITEETTHVVMKTDAEFVCERTLKYFLGIAGGKWVVSYFWVTQSIKERKMLNEHDFEVRGDVVNGRNHQGPKRARESQDRKIFRGLEICCYGPFTNMPTDQLEWMVQLCGASVVKELSSFTLGTGVHPIVVVQPDAWTEDNGFHAIGQMCEAPVVTREWVLDSVALYQCQELDTYLIPQIPHSHY
# notes: BRCA1, human, full-length, rare germline missense variant introduced in the WT plasmid; Made by site-directed mutagenesis of the plasmid of m1; also called c.1510C > T; source: HEK293FT, transiently co-transfected, in lysate
# B2: BRCA1 p.Glu575Lys (full-length, mCherry-tagged) (natural protein, human, UniProt P38398 1-1863, looked up)
# chain: B1 chain with C504R, E575K
# notes: BRCA1, human, full-length, rare germline missense variant introduced in the WT plasmid; Made by site-directed mutagenesis of the plasmid of m1; also called c.1723G > A; source: HEK293FT, transiently co-transfected, in lysate
# B3: BRCA1 p.Leu1439Phe (full-length, mCherry-tagged) (natural protein, human, UniProt P38398 1-1863, looked up)
# chain: B1 chain with C504R, L1439F
# notes: BRCA1, human, full-length, rare germline missense variant introduced in the WT plasmid; Made by site-directed mutagenesis of the plasmid of m1; also called c.4315C > T; source: HEK293FT, transiently co-transfected, in lysate
# B4: BRCA1 p.Leu523Val (full-length, mCherry-tagged) (natural protein, human, UniProt P38398 1-1863, looked up)
# chain: B1 chain with C504R, L523V
# notes: BRCA1, human, full-length, rare germline missense variant introduced in the WT plasmid; Made by site-directed mutagenesis of the plasmid of m1; also called c.1567T > G; source: HEK293FT, transiently co-transfected, in lysate
# B5: BRCA1 p.Gly933Asp (full-length, mCherry-tagged) (natural protein, human, UniProt P38398 1-1863, looked up)
# chain: B1 chain with C504R, G933D
# notes: BRCA1, human, full-length, rare germline missense variant introduced in the WT plasmid; Made by site-directed mutagenesis of the plasmid of m1; also called c.2798G > A; source: HEK293FT, transiently co-transfected, in lysate
# B6: BRCA1 p.Arg612Gly (full-length, mCherry-tagged) (natural protein, human, UniProt P38398 1-1863, looked up)
# chain: B1 chain with C504R, R612G
# notes: BRCA1, human, full-length, rare germline missense variant introduced in the WT plasmid; Made by site-directed mutagenesis of the plasmid of m1; also called c.1834A > G; source: HEK293FT, transiently co-transfected, in lysate
# Target: T1, BARD1-V5 WT (BRCA1-Associated RING …)
# Test: co-IP; HEK293FT co-transfected with BRCA1 WT or variant and BARD1-V5; 2 mg lysate protein incubated 90 min at 4 °C with V5 antibody coupled to Dynabeads Protein G; non-denaturing elution; BRCA1 in the IP detected by anti-BRCA1 blot, normalised to the anti-V5 signal, % of WT
# Details: partners not purified
row,Binder,Co-IP BARD1 (% of WT)
1,B1,63 % of WT
2,B2,77 % of WT
3,B3,60 % of WT
4,B4,71 % of WT
5,B5,73 % of WT
6,B6,71 % of WT

# Target: T2, Flag-PALB2 WT (Partner and Localiser of …)
# Test: co-IP; HEK293FT co-transfected with BRCA1 WT or variant and Flag-PALB2; 2 mg lysate protein incubated 90 min at 4 °C with Flag antibody coupled to Dynabeads Protein G; non-denaturing elution; BRCA1 in the IP detected by anti-BRCA1 blot, normalised to the anti-Flag signal, % of WT
# Details: partners not purified
row,Binder,Co-IP PALB2 (% of WT)
1,B1,65 % of WT
2,B2,66 % of WT
3,B3,86 % of WT
4,B4,73 % of WT
5,B5,115 % of WT
6,B6,59 % of WT

# From PMC9957003, “Functional Analyses of Rare Germline Missense BRCA1 Variants Located within and outside Protein Domains with Known Functions” (Genes, 2023)
